Measured values taken from a protein production outcome set (Wang et al. 2014).

Assay: label from the status in PepcDB records

Q: For “MLHIDDAMIEDAVTPQAAQEVLHAAFLDFGRGSAAMQRRVRTEAGGVKLSTLGAVIPGQGVAGAKVYTTIKGQFQFVILLFSAADGRPLATCDAGTLTRKRTAACTVLAAGALARPRSSVLGLFGAGTQGAEHAAQLSARFALEAILVHDPYASPEILERIGRRCGVPARMAAPADIAAQADIVVTATRSTTPLFAGQALRAGAFVGAIGSSLPHTRELDDEALRRARAVVVEWREQTLSEAGDLVLAAPDTGLDAKVVELADVLAGRAAARQADEDIVIYKSVGVGLEDVALAGYAYRRLAAQRGWPAP”, which protein production is on record?
A: not failed

Q: For “MLHRSPKRMVAVALFLACLVISLTTVTFAAPAPTIQIQNPMVEGIRSPLRIASDSLGGVYVSDSLAKGVLKYDVVGHLAQTIKTAAPPQGIAVASDGTLLVGQGTYVSMYSAAGQEIGKLGAGEGQFKMADGITVDDDGSIYVVDCLDNSVQIFNAAGSFVKKFGSFGTTPGKFSTPSGIAFEKVSRQVAVVDTRTGRIQFFDKTGAYVRTIGSFGTNPLRFTAPQGVSFEYSSGSTPVLKRMYVVDTFQSTVQAIDPAATPVFLSYIGTYGSGNGKLMVPSDVLFDQATGRLLVVNGFGNVSVYGVDGGGVSVAVDLIPPALTINPVVSPFMSPTLDLSGTVEAGARLTIATGGTTTVGAISFPTPTTWQTTLSGFAPGGTTITVTARDAANNATNQSVTVSYLQSGPMLTMEPLPTFTADTFQQLSGLVDPGSVVTVTNATTGASAKALVFGNTWSYRLPLAAGANSITVKAEKSMSAATTVSATTTLDAIPPALAVSALADGSYTSGQVQNIQVMVTDANLDVVTLNGQQIVPVNGSYSTAITLKPGPNVIMAAAVDLAGNVTTDIRTIIYDGTRPVVSFTTPAEGTYVTSDHVSVSGIVDETAVVTVAGLPARMDGTSWSADVPLVPGMNTIDVVAVDLAGNVGSVKRTVTYDTEAPALVVSAPSQDVVTNRPTFGFAGNVTDPSPVTLTAEVDGAPVAVTVTDGSFTLAVTFANEGSHAVTFTATDAAGNASRVTRTVIYDGTAPALTLDPVNTPYPSVLTGTVEAGAAVTVEDRNGSAGTVTVSGEKWNAALEVGGYDAASLAVRATDVAGNSTVRSLVVNVPDGDLNGDGAVTVHDVILALRMFTRQMVPTANQLAHGDIGPLYQGKAKPNGVVDLVDAILIMRKALGMPSW”, which protein production is on record?
A: failed

Q: Which protein production does the source give for “MLIEIPNVFSKQEVSHLREQLDARRWIDGNQTSGAMATTRKRNQQLDKDDPVAVALGQQIMDRLLAHPQFVSAALPLQFYPPLFNRYQGGETFGYHIDNAIRSTPDGMIRTDLSATLFLSEPENYQGGELVIQDTYGQQSIKLSAGSLVLYPSSSLHQVTPVLSGERTAAFMWLQSMVRDEGQRRLLFQLDQSIQSLTAQTAAEQELFNLSGVYHNLLRRWSEL” here?
A: not failed

Q: For “MLIGIDLGTTNSAVALWHEGEARLVPNSLGALLTPSAVSVLQDGTTLVGAAAFERMAAKDGAAATSFKRLLGTDRKVRLGRKEFSAEDLSALVLQSLCADVEAHTGERPTEAVITVPAYFNDRQRKATRRAGELAGLSVRRLINEPTAAALAFGLKDKAEREPFLVFDLGGGTFDVSIVEMFEGIVEVRASAGDNRLGGDDFNGALAMAVKGRLDPDERLATLGEARAQALLLQAAERTRRALTDAPEAEFAVTAGDERLSTTVTASEFEAQAEGLLRRLRDPVVRALRDSQIDAASLSEIVLVGGATRMPLVRKAITRLFGRFPNASVHPDHAVALGAAIQGGLIARDGGLEEIRITDVCPFTLGIETAEHSVRGTIQQGLFSPIIERNTPVPVSRSGVYSTMGDGQKQIAVHIYQGEAREVSGNVKLGTLSVPVPSRPAGEVSIDVRFSYDSSGLLEVDVEVPLTGTRHNLVIIDEEDRKAAKDLDARRKALAALKHHPREEAANQLLLARAERCYEEFLGDVRAVIGGRTLSFTTALDSQDPRRIADAAAELAELLDMLEANPVL”, which protein production is on record?
A: failed

Q: With “MLIGPYTHDAFMEEARKFHGYPAPGLIIGGYMVEMARRALPEGILFDAISETGQCLPDAVQMLTPCTIGNGWLRIRNFGLYALSLFDKHTGVGVRVHIDSQKLERFPEIKAWFLKLKPKREQDTERLQQEIREAAFDLLTLRPVTIRPDALGHGGKGGTIVACPLCGEYHPSAFGGICRSCQGESPYEVGPGLSFPGQPELRAVPVEEAVGKHALHDMTRIVPGESKGAEFVAGQELGAGDVCRLQMMGRNRVYVREETGDMQGWVHEDEAARAFGELMPGDGIEPEGPVREGKINFRATRDGVLVVDTRRLEQFNLVPDVMCATRHTHGVVLAGTRVAGTRAIPLYLSTLNLAKATTLLEGGPLFSVAPMRKAKVGVLVTGTEVFRGIIEDKFAPIITQKANQLGCDMAGTVIAPDDAPLITRGVHDLLAAGADLIVTTAGLSVDPDDMTRKGLLDAGLTEMLHGVPVLPGTMTLIGRIGGAQVIGVPACALFFKTTALDLLLPRLLAGLSVTRLDLARMGHGGLCMECRSCSFPKCPFGRG” as the sequence, how does the protein production read?
A: failed

Q: With “MLIIAILCLGLLVAQGVASLILLSRLVKGARRRSPLAPVFLPEEGVRNVSVVVPTLNEAARVTPCLLGLAQQGPPLREILVVDSRSTDGTQAVVQARQKDNPRLQLLTDDPLPDNWVGRPWALNYGFRHSDPASEWILGIDADTQPQPGLVASVVQAAEEENYDILSLSPQFILQSPGEWWLQPALLMTLLYRFESAGVREQAPETVMANGQCFLCRRLVLEALGGYELAARSFCDDVTLARVAAQRGYRVGFLDGANLIRVRMYEGIGETWREWGRSLDLKDATVPARLWAEVIFLLLVQGLPILFFSLLLMLWGEDFDFLTLRLAIALNGFLLLVRWGMLLAIYPSYYRPSEKGAWSYWLSPLADPLAVTRIIISASQTPKQWRGRIYPGAS” as the sequence, how does the protein production read?
A: failed

Q: For “MLIIFASGFALRAGTVTVAGVYSEAHYQPLMYDMDSYYNLRLASNLLNEGELSEGGWDRYSYYPPGVPLDYPPLLPHLTVTLYLLFTWLLPGLTDTAFWLPAIIAPLAGVAVFAAARSLDCDDVSATTAGLLATAAPFYFMRTIPGFYDTDMFNLVLPLAILLTLHLSLRDGDWRMAVLSGALMGVFAAAWNGWQLIYSIMALSVILHSLLYRRREPLIFLITSTLLIVLMDPRAIPSIPVGLMKIPVARADPFPDPYANITELQRPGFDDVLMALGPGLLLAGLAGFRSLFRDWRDSMVLPVIILWTLTGAASLLWGIRFSELLTAPLLITSALFLADLGTASRVPPGFRRKLHVAVAIMVVLPSLIISTGQYSALHPRVDDGLLDAADYIRAKTPPDTVVISNWVHGHFFAFMARRPVNFDGRLAYIETAAKRGPGYPLDPRIPGVYREYWHDPGPNDHGPHLADEILSMLASSGDEAYLEVLNATGDPAGSAVILGDVLAVDGSSRAEYLQDRGLDPVASGRVASTLSRRSGYVLVTCDRLIDKGYWILYYGNWNFTGKTRKPVYSTGSIVQGWPLRTSDGLLWDGERISFNGLRVSELYLVDGGVRKVEGDPQGGLVAFVLYDRNRTVVLERGYEDSMFARLVLLGDGGGVFRAVMRSRDVTVWEPIRDWNT”, which protein production is on record?
A: failed

Q: With “MLIILFLIQMILIVKALGLKGLFIFLALIFGLFVLCKVSLKVKLPRNKYSKVTWEDMPWLYDGVARMANKARISTPNIYIEDNPIPTAYSFQNSIVLSAGLLEILNEEEVLAVAAHEIGHIKNGDTVLFPLLRYGKYIMGIITAIIVIFATGFITKVVSFLVFVIYAFSLLKFLRKREFLADRVALQIAEVPYALKSALEELKFYEEALKTKEMPLPTIQPSIRREEKREPQIFPLPSTHPSYDERIARIIAIVEMYRRLEFLN” as the sequence, how does the protein production read?
A: failed

Q: For “MLIILTGLPSVGKSTFSKAFSKKMAEKNIDNIILGTDLIRESFPVWKESYEEFIRDSNNYLIKEALENKFSVIVDDTNYYNSKRRDLMNIAKECDTNYVTIYLKAPLNLLLKRNIERGQKIPNEVIKNMYEKFDTPGTKYAWDLPDITVDTTEKIDYNEILNEILEINENKNLKIEEDKIPKSEPVESDLVKIDSLTRNIVGNLIKTGKIDKKDIKLLSEIRKSFLKDCKKIESEKLDFEKIEKDFLDYLNKNLK”, which protein production is on record?
A: failed

Q: Which protein production does the source give for “MLIKKNALSILKIVFPIAVLLFVIYQSKKELTNLSFKRTLMVINGLERTDLFMLVLIGLLAVAAMSLYDYVLKYSLRLSITNGKVFRVSWIANSFNNVLGFGGLAGVGLRMMFYKEHTKDHKALVKGIAWLTSSMLLGLSVFSIFVAARVLPVDEVIHEKPWLWAVVIGFALILPLSLAVSKIKDRKAGDEENADKVKNPIFAYIGASVVEWLMAGTRHLFCFVRYGHSCRYQVCVRGVRHCGDRRNDQPRAGRLRLV” here?
A: failed

Q: With “MLIKLTGGTVYDPANGIDGQVRNLFIRDGRIVHSLNGATPDQEYDLRGKVVMAGAIDMHTHIGGGKVTIARNLLPEDHRADPEPRRGLMRAGCGHAAPSTLTTGYRYAEMGYTAGFEPAVLPINARQAHMEMADVPLLDVGGYVMLGSDDFFLRLLSAGSDQKLINDYVAWTIRSAKAIGIKVVNPGGISAFKFNQRMLDLDEKHVYYGVTPRQILKSLARAVHELGVPHPLHVHGCNLGVPGNVETTLNTISGIEGLPMHLTHIQFHSYGVEGDRKFSSGAARIAEAINANKNITIDVGQILFGQTVTASGDSMRQHANAGHAHPDKWVCMDIECDAGCGVVPFKYRDKNFVNALQWCIGLETFLLIDDPWRVFLTTDHPNGAPFTTYPHLIRLLMDKSFRNDMLATINPEAAALSTLGSIDREYSLYEIAIMTRAGAARLLGLTDRGHLGAGAAADITVYTDQADKEKMFTRPDYVFKDGELVVRNGEVVKVVWGNLHTVQPEFDNGIEARLRDYFDRYHTMKLDNFVINDWEIEGDGRSKILVHPCHQGTRSLEHHHHHH” as the sequence, how does the protein production read?
A: failed

Q: With “MLILKNSMASPHPFPWPQRFTVMALTFAWGLSLPVLAQTKSAVQWYNDGVDKLAAQNFSGAIADFTESIKLNDQDADAYYNRGYAKHVLGQYQAAITDYNQAISLNPEFAYALGNRCYAYFLLSQYDKAIQDCSNAIEINPNYADFYVYRGNSQSQLGNETTAIADYNDAIRINAQHANAYYNRALTHNRLKQDQQALADYNQSIQLDPDSAEAYFNRGLTQYRLGDEPKAIADLTKAAELFNAQEKKDMAQKAEAILTQIRAIDA” as the sequence, how does the protein production read?
A: failed

Q: Which protein production does the source give for “MLINSEIISLSGSMYEDRSYQNEAIDFIASKLANYPGVALEAPTGSGKTMMALLGSLKYAYNGHLKILYLVRTNSQEEQVIRELRTISKNRKIRALPMQGRINLCILYKTADDLKEATAESLSKFCNSRKRQVMEGHQEACPYYTIKVRSKETKDFLFENLPTAEEFYEYAFTNNLCPYESIKASLSDADIVVAPYMYFLNKTVADRFLSHWGVSREQLIIVLDEAHNLPDIGRSLGSFRISIESLNRSEKEAQSFGDPELDRGVHVTDFIEMIRSTLERTIKERVKEDDVRIRFQEFKEYLMIMNKKSEKSIRDLNNYLYLFGEYVENEKEKAGKVPVSYCSSLAQRLEAMMDEDDAMYAAILSKSESGYIQASCLDPSSILSSLKESKTIHMSGTLEPFEFYSDVTGFDIPFRRIENVFPIENRFVSYYEGVSTKYDTLDENEIRKLASIIENIVNGVKRNTIVYFPSYAVMDKVIGSGLDFDFLQEKKNLDQTEFYDVVKKFRNGGKPLLAVSGGRLSEGMNFPGRELELILIAGIPFPRPDATNRALYDYYEMKYKKGWEYAVLAPAIIKIRQEIGRLIRGKDDHGACVILDKRAKQFRRFIPDLVKTDDPVNDINTFFSNFK” here?
A: failed

Q: Which protein production does the source give for “MLIYEGHIDKLIRRGQEKGLDIFNLIRAAVINPVEHYGLNVGLLREGDPADFITVDDLKSFNVLSTFIDGECVYENGKVLFPMKLEHHHHHH” here?
A: not failed

Q: Which protein production does the source give for “MLIYNLAIHSYLGCDSLALLPKANTLSKEKNINNADDTIKDQILASIDSFIYTKDLSGKYTYANQAVLDLFEKNLADVIGFDDTHFFDLALSKQLKANDRMVMDQVIRIENEESNFIRAKNETRIFKVVKKPLFDHLGNVNGICGISTDITVEKQLQEQVNEQSYLLETMLNNIDAHIYVKDCERTFLYVNNRVAELFGDKAENIIGKKDTDILPKEIAEHFYQSDKQVFETNQKQVIEETTHGENGDNCHYISTKVPFDRPDKLPALIGFSTDVTELFKLKEEFKLLANTDPLTNLYNRRFFIEQAEKEYQRAKRYSLSMTLISIDIDHFKSINDQFGHPAGDQVLIEIAKQLKASLRQTDILARIGGEEFSILLPETSAMSAMTFAERIKEEQSRLIITGDWQGEINLSVSIGVSSLIASDKAFDVLFSRADKALYQAKNTGRNTVCYL” here?
A: failed
